Experimental data reported in the supplement of paper PMC10567573.
± gives the standard deviation.

Assay: protein stability index of a GFP-peptide fusion (GPS, HEK-293T) (PSI 1-6); higher = more stable
[1] = treatment: DMSO, c terminus: a fixed tail appended
[2] = treatment: MLN4924 1 uM, 8 h, c terminus: a fixed tail appended
[3] = treatment: DMSO, c terminus: native
[4] = treatment: MLN4924 1 uM, 8 h, c terminus: native
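Further: 24-mer peptide tiles fused after GFP, lentivirally expressed, FACS-sorted into six equal bins by GFP/DsRed ratio, decoded by Illumina sequencing, PSI is the read-weighted mean bin number.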

Sequence	protein stability index [1]	protein stability index [2]	protein stability index [3]	protein stability index [4]
HEAFKDELKTFRLKTRSWAGERSR [CDC25B]	3.57 ± 0.3	3.8 ± 0.22	–	–
HEVKDNYIPVIKRALNSVPVIIAA [RHOBTB3]	2.34 ± 0.34	2.18 ± 0.17	–	–
HEVREFKQLIYRVRRTDDTPVVLV [RIT1]	2.2 ± 0.29	2.24 ± 0.16	–	–
HFHPTVIGESMYGDFEEAFDHLQN [TENT5C]	3.82 ± 0.064	3.9 ± 0.37	–	–
HFWGEKNHGFEVLYHSVKQGPIST [FCHO1]	2.44 ± 0.52	2.48 ± 0.43	–	–
HGDPIPKVEFTEEEIKTWGTVFQE [TPH1]	4.87 ± 0.2	4.86 ± 0.16	–	–
HIDIVKELIKWRAAIVVNGHGMTP [FEM1B]	2.15 ± 0.53	2.17 ± 0.26	–	–
HKKKSPGEKPHRCPQCGKCFARKS [ZNF449]	3.86 ± 0.55	4.23 ± 0.43	–	–
HLTVHKRIHTGERPYMCKECGKAF [ZNF8]	2.73 ± 0.28	3.27 ± 0.38	–	–
HMNVEALPEWISCLIQKAQWTVGK [RNF180]	2.32 ± 0.51	2.19 ± 0.34	–	–
HPRGWNDHVHILDTETFTWSQPIT [KLHDC2]	2.42 ± 0.29	2.71 ± 0.54	–	–
HQPPYIIAVLPRYVEIRTFEPRLL [VPS39]	2.61 ± 0.75	2.38 ± 0.37	–	–
HRDLKPENLLLASKLKGAAVKLAD [CAMK2A]	3.67 ± 0.22	3.62 ± 0.091	–	–
HRPSTLQAASTPQAEEDWTCTIL [OAS1]	–	–	4.18 ± 0.17	4.45 ± 0.14
HRRDGKWQNVHFHCSGAPVAPLQ [CAMK2B]	–	–	2.39 ± 0.31	2.6 ± 0.34
HSNGPTDLSMKGGASTTSTTPSAL [NOL4L]	4.94 ± 0.19	4.94 ± 0.3	–	–
HSPFSSESRALSTSSNLGSQYQCE [TBX5]	4.4 ± 0.35	4.53 ± 0.22	–	–
HSQRTALHLAAQKALRTISTGRI [INVS]	–	–	3.08 ± 0.9	2.36 ± 0.086
HSSDEDEDEDDEEDFEDDDEWED [WASL]	–	–	3.19 ± 0.17	3.33 ± 0.47
HTPGGQNQEILLPGGITSHQLLGL [TNXB]	3.33 ± 0.22	3.47 ± 0.31	–	–
HTTIVATRHYRPPEVILELGWAQP [CLK3]	2.26 ± 0.26	2.23 ± 0.16	–	–
HVLALGLGIYIGKRLSTPSASTY [BNIP3L]	–	–	3.43 ± 0.86	3.2 ± 0.64

Sequence	protein stability index [1]	protein stability index [2]	protein stability index [3]	protein stability index [4]
HYYKENDPSVRLKIASLLGLLSKT [INTS4]	2.05 ± 0.31	2.18 ± 0.23	–	–
IAAATSVLKTRFSYAFPKEFPYRM [CCNC]	2.08 ± 0.12	2.58 ± 0.51	–	–
IAEDGTKEIESQGSIPGFLISSGM [TAF7L]	4.25 ± 0.28	4.21 ± 0.38	–	–
IASIADVCESMKEQLLVLVEWAKY [HNF4A]	2.42 ± 0.36	2.15 ± 0.38	–	–
ICMAQIAYSGNTSNLSYHLEKNHP [ZBED1]	2.3 ± 0.24	2.38 ± 0.26	–	–
ICRVFSTSPAKDSLSFEDFLDLLS [CIB1]	2.34 ± 0.25	2.2 ± 0.1	–	–
IDSSSSWWTNWVIPAISAVAVALM [CYB5A]	2.64 ± 0.14	2.69 ± 0.15	–	–
IEAEGATAPLTELLHSRNEGVATY [CTNNB1]	4.32 ± 0.27	4.31 ± 0.25	–	–
IEAKEACDWLRATGFPQYAQLYED [DLC1]	3.21 ± 0.43	3.31 ± 0.083	–	–
IEARRRALKRFVNLVARHPLFSED [SNX8]	2.37 ± 0.67	2.61 ± 0.43	–	–
IETGENVTGMELEFKRLASSKAHT [PTPRD]	4.35 ± 0.12	4.33 ± 0.29	–	–
IEVQPNFEVPYYNRGLILYRLGYF [TTC32]	3.17 ± 0.4	2.73 ± 0.38	–	–
IFLYARPNSTFPIDKSMTVVLTFI [OR4A15]	2.84 ± 0.37	3 ± 0.3	–	–
IFNYMRLGSTKLSDKDKAVGIFNT [OR3A1]	2.1 ± 0.34	2.36 ± 0.25	–	–
IGDFGISKILSSKSKAYTVVGTPC [NEK8]	2.35 ± 0.12	2.47 ± 0.34	–	–
IGELLAPAAPFDKKCGRENWTVAF [WSB1]	2.23 ± 0.12	2.57 ± 0.45	–	–
IGSKNGGKTTIILRCLDRDEPSKP [DYNC2LI1]	2.54 ± 0.7	3.16 ± 0.32	–	–
IIDCGDIVWSLAFGSSVPEKQSRC [WSB1]	2.12 ± 0.24	2.35 ± 0.28	–	–
IIHHMRLQAKALQLIVTARTTRGL [INTS4]	2.5 ± 0.58	2.26 ± 0.28	–	–
IIYPRQQLLTLRELEMIGFIENNV [TRIP13]	2.6 ± 0.37	2.26 ± 0.22	–	–
IKAVTHQVKFGQQNPRQVAQSEAE [ZC3H15]	4.86 ± 0.2	4.9 ± 0.23	–	–
IKIVLINSFGAILQGSLFGLAGLL [SLC29A1]	2.72 ± 0.32	3.25 ± 0.2	–	–

Sequence	protein stability index [1]	protein stability index [2]	protein stability index [3]	protein stability index [4]
ILGKVILWILHLLLECYIQYHHSK [TMEM192]	2.99 ± 0.51	2.9 ± 0.31	–	–
ILPKELQAWVQKHHPENGEETVTM [ZNF396]	3.5 ± 0.07	3.58 ± 0.29	–	–
ILVTKVEEPSKYGVVVCEADTGRI [GMPPB]	2.75 ± 0.18	2.91 ± 0.22	–	–
IPAFCELPLDDQVALLRAHAGEHL [HNF4A]	2.88 ± 0.26	3.22 ± 0.33	–	–
IPPSSDRTPEILKKALSGLSSRWK [CDS1]	2.39 ± 0.49	2.29 ± 0.46	–	–
IQYLTENIWASQSVLSACDNLSDL [IQUB]	2.49 ± 0.34	2.49 ± 0.3	–	–
IRAMGRLKIDFGDSARADDARQLF [GNAI1]	2.63 ± 0.25	2.77 ± 0.14	–	–
IRERILGPSHPDTSYYIRYRGAVY [FEM1C]	2.22 ± 0.27	2.1 ± 0.34	–	–
IRRPRLYLLQWLKSDKALMMLFND [PLK2]	2.58 ± 0.48	2.75 ± 0.26	–	–
IRTYLGRSPLVSGDESSLLLNAAS [RHOBTB3]	2.62 ± 0.35	2.46 ± 0.34	–	–
ISCFNNAPPAKLACPVCSKMVPRY [FAN1]	2.24 ± 0.19	2.67 ± 0.26	–	–
ISSIGQVQSYMEHYCNSSTDRRVL [SPACA9]	3.23 ± 0.33	3.25 ± 0.36	–	–
ITSSVFPSASLGKASSRKPFGILS [FBXO34]	2.65 ± 0.12	2.67 ± 0.21	–	–
IVDIKPANMEDLTEVITASEFHPH [PPP2R2C]	3.92 ± 0.28	3.9 ± 0.41	–	–
IVIGILSAYISNYAFANVFHGWKY [SLC2A12]	3.01 ± 0.51	3.25 ± 0.68	–	–
IVLGPYHVKFRSLSMVSECLFSLI [MCOLN1]	2.94 ± 0.68	2.78 ± 0.42	–	–
IYLSTSSSKFYDLFLMDLSEGELG [RHOBTB2]	3.38 ± 0.65	2.9 ± 0.39	–	–
KAILDAEPGPRPALQPSPSIRLPL [TBC1D10A]	4.27 ± 0.15	4.34 ± 0.059	–	–
KAQRDYELKKAAYDIEVNTRRAQA [FLOT1]	4.17 ± 0.11	4.44 ± 0.085	–	–
KAREKDGKGRTASPINSPARGTPS [FSD1]	4.92 ± 0.11	5.19 ± 0.27	–	–
KAYGWCSELIRHRRVHARKEPSH [ZNF232]	–	–	2.75 ± 0.2	2.51 ± 0.44
